Here are results for 15 molecules from patent US20220348674A1 (APOLLOMICS, published 2022).

B1: 1D3 rabbit-human chimeric anti-CD40 antibody (antibody, V domains shown)
VH: QSLEESGGRLVTPGTPLTLTCTASGFSLSNYHMCWVRQAPGKGLEWIGYNSYGGSAYYASWAKGRFTISKTSTTVDLKITRPTTEDTATYFCARAYLDYNGDMGFALWGPGTLVTVSS
VL: EVVMTQTPSSVSAAVGGTVTFKCQASQSISSYLSWYQQKPGQPPKLLIYRASTLESGVPSRFKGSGSGTQFTLTISDLECADAATYYCQTNYYDSGNTYGTFGGGTEVVVK
notes: tested as cell culture supernatant
B2: 6C2 rabbit-human chimeric anti-CD40 antibody (antibody, V domains shown)
VH: QSVEESGGRLVTPGTPLTLTCTASGFSLSTYYMIWVRQAPGKGLDYIGIISSNGNAYYATWAKGRFTISKTSTTVDLKMTSPTTEDTATYFCARAASIANSYYFNVWGPGTLVTVSS
VL: AVLTQTPSPVSAAVGGTVSISCQSSQSVRDNNWLSWFQQKPGHPPKLLIYGASNLESGVPSRFSGSGSGTEFTLTISDVQCDDAATYYCQGGFSTYSDNSFGGGTEVVVK
notes: as for B1
B3: 7A6 rabbit-human chimeric anti-CD40 antibody (antibody, V domains shown)
VH: QSVEESGGRLVTPGTPLTLACTVSGIDLSTWTMSWVRQAPGKGLEWIGIINSDSNTYYASWAKGRFTISKASTTVDLKMTSLTTEDTATYFCARGVGGYSSGPDYLDIWGPGTLVTVSS
VL: DIVMTQTPASVEAAVGGTVTIKCQASQSIYRSLAWYQQKPGQPPKLLMYHASDLASGVPSRFKGSGSGTEYTLTISDLECADAATYYCQSYYYSGINTYGNAFGGGTEVVVK
notes: as for B1
B4: 6G8 rabbit-human chimeric anti-CD40 antibody (antibody, V domains shown)
VH: QSVEESGGRLVTPGTPLTLTCTASGFSLSTYYMTWVRQAPGKGLEAIGYINTGGSTYYASRAKGRFTISKTSTTVDLKMTSPTTEDTATYFCARADASEHNYNGLNIWGPGTLVTVSS
VL: DIVMTQTPASVSEPVGGTVTIKCQASESISSNLAWYQQKPGQPPKFLIYRASTLASGVPSRFKGSGFGTQFTLTISDLECADAATYYCQSNYGSISSSYGNAFGGGTEVVVK
notes: as for B1
B5: 7C11 rabbit-human chimeric anti-CD40 antibody (antibody, V domains shown)
VH: QSLEESGGRLVTPGGSLTLTCTVSGIDLSTNGMGWVRQGPGKGLEWIGTIRVTAGTDYANWAKGRFTISKTSSTTVDLKMTSLTTEDTATYFCARGHANNDAYVYFNLWGQGTLVTVSS
VL: AFELTQTPASVEAGVGGTVTIKCQASQSIDRYLAWYQQKSGQPPKLLISYTSKLASGVPSRFKGSGSGTEFTLTISDLECADAATYYCQSYFTSDDANSFGGGTEVVVK
notes: as for B1
B6: 8C10 rabbit-human chimeric anti-CD40 antibody (antibody, V domains shown)
VH: QSLAESGGRLVTPGGSLTLTCTVSGIDLSTDGMGWVRQGPGKGLEWIGTIRVTGGTDFATWAKGRFTIAKTSSTTVDLKMTSLTTEDTATYFCARGHANNDAYVYFNLWGQGTLVTVSS
VL: AFELTQTPASVEAGVGGTVTIKCQASQSIDRYLAWYQQKPGQPPKLLMAAAANLASGVPSRFKGSRSGTEFTLTISDLECADGATYYCQSYFTSDDGNTFGGGTEVVVK
notes: as for B1
B7: 7G6 rabbit-human chimeric anti-CD40 antibody (antibody, V domains shown)
VH: QSLEESGGRLVTPGGSLTLTCTVSGIDLSTNGMGWVRQGPGKGLEWIGTIRVTGGTDYATWAKGRFTISKTSSTTVDLKMTSPTTEDTATYFCARGHANNDAYVYFNLWGQGTLVTVSS
VL: AFELTQTPASVEAGVGGTVTIKCQASQSIDRYLAWYQQKPGQPPKLLISYTSTLTSGVPSRFKGSGSGTEFTLTISDLECADAATYYCQSYFTSDDANTFGGGTEVVVK
notes: as for B1
B8: 2C10 rabbit-human chimeric anti-CD40 antibody (antibody, V domains shown)
VH: QSLEESGGRLVTPGTPLTLTCTASGFTMNRYRMSWVRQAPGKGLEWIGTINNDAGASYASWVNGRFTISKTSSTTVDLKITGPTTEDTATYFCARAGDNIYVDLYNLWGPGTLVTVSS
VL: DVVMTQTPASVSGAVGGTVTIKCQASENIFSYLAWYQQKPGQPPKLLFYGASNLASGVPSRFSGSRSGTEFTLTISDLECADAATYYCQFTNYGSSDIRSPFGGGTEVVVK
notes: as for B1
B9: 8C6 rabbit-human chimeric anti-CD40 antibody (antibody, V domains shown)
VH: QSVEESGGRLVTPGTPLTLTCTASGFTITSYYIIWVRQAPGEGLEYIGIIDTGGSADYASWAKGRFTISRTSTTVDLKMTSLTTEDTATYFCARADVGSVGSIWGPGTLVTVSS
VL: DVAMTQTPSSVSAAVGGTVTIECQASQNIYTNLAWYQQKPGQRPKLLIYYASTLASGVPSRFSGSGSGTEFSLTISDLECADAATYYCQCTYIKWRHVCGFGGGTEVVVK
notes: as for B1
B10: 7H11 rabbit-human chimeric anti-CD40 antibody (antibody, V domains shown)
VH: QSVEESGGRLVTPGTPLTLTCTVSGIDFSKYWMAWVRQAPGEGLEYIGILSTTGSTYYASWAKGRFTISKTSTTVDLKITSLTTEDTATYFCARGNYIGNGYTWDIWGPGTLVTVSS
VL: DPVLTQTPSSASEPVGGTVTIKCQASQSIGSYLAWYQQKPGQPPKLLIYSPSTLASGVSSRFKGSRSGTEFTLTISDLECADAATYYCQSTAVGITFGGGTEVVVK
notes: as for B1
B11: 7D2 rabbit-human chimeric anti-CD40 antibody (antibody, V domains shown)
VH: QSVEESGGRLVTPGTPLTLTCTVSGFSLNNYYMGWVRQAPGKGLEYIGWITSGRIAAYANWAKGRFTISKTSTTVDLKITSPTIGDTATHFCATTTTSDAYFFPRLGLWGQGTLVTVSS
VL: AVLTQTPSPVSAAVEGTVTINCQSSQSVDNNRLSWFQQKPGQPPKLLIYDASTLASGVPPRFKGSGSGTQFTLTISDVQCDDAATYYCAGGYSFPSENAFGGGTEVVVK
notes: as for B1
B12: 6E1 rabbit-human chimeric anti-CD40 antibody (antibody, V domains shown)
VH: QSVEESGGRLVTPGTPLTLTCTVSGFSLSSYAMTWVRQAPGKGLEWLGIIDTIGSTYYASWAKGRFTISKTSTTVDLKITSPTTEDTATYFCVRDYIGSTSGKKLWGRGTLVTVSS
VL: AVLTQTPSSVEAAVGGTVSISCQSSKSVYYKNWLAWYQQKPGQPPKLLIYGASTLASGVPSRFKGSGSGAQFTLTISDVQCDDAATYYCAGGYSSDSDTGFGGGTEVVVK
notes: as for B1
B13: 6H9 rabbit-human chimeric anti-CD40 antibody (antibody, V domains shown)
VH: QSLEESGGRLVTPGTPLTLTCTVSGIDLSSYAMGWVRQAPGKGLEYIGVIASNSGISYYATWAEGRFTISKASTTVDLKITSPTTEDTATYFCVRGYIGDGALWGPGTLVTVSS
VL: AVLTQTPSSVSAAVGGTVTINCQSSKTVYYNNWLAWYQQKPGQPPKLLIYRASTLASGVPSRFKGSGSGTQFTLTISDVQCDDATTYYCAGGFSSDSDTTFGGGTEVVVK
notes: as for B1
B14: 3B12 rabbit-human chimeric anti-CD40 antibody (antibody, V domains shown)
VH: QSLEESGGRLVTPGTPLTLTCTVSGIDLSSYAMGWVRQAPGKGLEYIGVIASNSGISYYATWAEGRFTISKASTTVDLKITSPTTEDTATYFCVRGYIGDGALWGPGTLVTVSS
VL: AVLTQTPSSVSAAVGGTVTINCQSSKTVYYNNWLAWYQQKPGQPPKLLIYRASTLASGVPSRFKGSGSGTQFTLTISDVQCDDATTYYCAGGFSSDSDTTFGGGTEVVVK
notes: as for B1
B15: 2B8 rabbit-human chimeric anti-CD40 antibody (antibody, V domains shown)
VH: QSLEESGGRLVTPGTPLTLTCTVSGIDLSSYAMGWVRQAPGKGLEYIGVIASNSGISYYATWAEGRFTISKASTTVDLKITSPTTEDTATYFCVRGYIGDGALWGPGTLVTVSS
VL: AVLTQTPSSVSAAVGGTVNIGCQSSKSVYYNNWLAWYQQKPGQPPKLLIYRASTLASGVPSRFKGSGSGTQFTLTISDVQCADATTYYCAGGYSSDSDTTFGGGTEVVVK
notes: as for B1

T1 sequence (P25942 21-193 limits assumed): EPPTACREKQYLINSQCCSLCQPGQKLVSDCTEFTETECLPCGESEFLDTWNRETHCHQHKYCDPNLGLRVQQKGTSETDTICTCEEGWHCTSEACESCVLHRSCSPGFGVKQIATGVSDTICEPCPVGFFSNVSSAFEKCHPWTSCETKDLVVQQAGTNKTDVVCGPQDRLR

The assay has as its target T1, purified recombinant human CD40 protein (human, UniProt P25942 21-193).
T1 construct: also called recombinant CD40
As to the kind of experiment: ELISA on coated recombinant human CD40; chimeric antibody supernatant. As to the method: ELISA plate was coated with purified recombinant CD40 protein in coating buffer at lug/ml overnight. After washed for 3 times, the plate was blocked with 1% BSA, and then cell culture supernatants containing rabbit-human chimeric CD40 antibodies were added to the plate. For detection of the antibody binding to CD40 protein, goat anti-human Fc polyclonal antibody conjugated to alkaline phosphatase was used.
A general note: ELISA stands for enzyme-linked immunosorbent assay.
As for B1, the OD405 came out at 1.51 OD405.
For B2, the OD405 turned out to be 1.96 OD405.
Take B3: the OD405 was determined as 1.99 OD405.
As for B4, the OD405 worked out at 1.77 OD405.
For the molecule B5, the OD405 came out at 1.8 OD405.
Consider B6, for which the OD405 was 2.09 OD405.
For the molecule B7, the OD405 stood at 1.82 OD405.
On to B8, for which the OD405 came to 2.14 OD405.
Regarding B9, the OD405 was found to be 1.97 OD405.
Take B10: the OD405 is 1.46 OD405.
As for B11, the OD405 is 1.82 OD405.
Regarding B12, the OD405 was determined as 1.82 OD405.
For the molecule B13, the OD405 stood at 1.97 OD405.
With B14, the OD405 is 1.57 OD405.
Consider B15, for which the OD405 came out at 1.64 OD405.
